Source: the supplement of paper PMC7877785
± gives the uncertainty stated by the source.

Test: self-splicing fitness, log relative to wild type (ln ratio); higher = more splicing; Tetrahymena group I intron in knt gene, E. coli kanamycin selection, DiMSum; sequences stand for … in CUCUCU…GGAGGGAAAAGUUAUCAGGCAUGCACCUGGUAGCUAGUCUUUAAACCAAUAGAUUGCAUCGGUUUAAAAGGCAAGACCGUCAAAUUGCGGGAAAGGGGUCAACAGCCGUUCAGUACCAAGUCUCAGGGGAAACUUUGAGAUGGCCUUGCAAAGGGUAUGGUAAUAAGCUGACGGACAUGGUCCUAACCACGCAGCCAAGUCCUAAGUCAACAGAUCUUCUGUUGAUAUGGAUGCAGUUCACAGACUAAAUGUCGGUCGGGGAAGAUGUAUUCUUCUCAUAAGAUAUAGUCGGACCUCUCCUUAAUGGGAGCUAGCGGAUGAAGUGAUGCAACACUGGAGCCGCUGGGAACUAAUUUGUAUGCGAAAGUAUAUUGAUUAGUUUUGGAGUACUCGUGGUCG
Outline: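 A randomised library covering all eight P1ex-region intron nucleotides was built with the intron in the knt kanamycin-resistance gene on pET-22b(+) and held in E. coli BL21(DE3). Cells were grown overnight at 37°C or 30°C on LB agar, with or without 25 μg/mL kanamycin, plus 100 μg/mL carbenicillin, 50 μM IPTG and 0.2% rhamnose, and pooled colonies were amplicon-sequenced on an Illumina HiSeq 2500. DiMSum fitness is the error-weighted combination of wild-type-normalised replicate fold changes, kanamycin versus none.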

| Sequence | self-splicing fitness (ln) (30 °C) | self-splicing fitness (ln) (37 °C) |
| --- | --- | --- |
| GGCGAGCAAUAUUACGGCGA | -0.138 ± 0.078 | -0.0802 ± 0.092 |
| UUGCAGCAAUAUUACGCGUG | -3.13 ± 0.14 | -2.7 ± 0.17 |
| ACAAAGCAAUAUUACGAAGC | -3.71 ± 0.22 | -0.444 ± 0.15 |
| GAUGAGCAAUAUUACGAAGA | -3.25 ± 0.17 | -0.937 ± 0.14 |
| CGACAGCAAUAUUACGACCA | -0.898 ± 0.1 | -0.397 ± 0.12 |
| UUACAGCAAUAUUACGGCCA | -1.02 ± 0.12 | 0.128 ± 0.13 |
| UCCGAGCAAUAUUACGCAUC | -3.11 ± 0.41 |  |
| CCCUAGCAAUAUUACGAACC |  | -2.28 ± 0.39 |
| GACGAGCAAUAUUACGAGCC | -2.73 ± 0.33 |  |
| GCACAGCAAUAUUACGUGAA | 0.0235 ± 0.053 | -0.102 ± 0.068 |
| CGAGAGCAAUAUUACGAACA | -2.54 ± 0.3 | -2.84 ± 0.41 |
| UCAGAGCAAUAUUACGGUAC | -2.06 ± 0.3 |  |
| UGCUAGCAAUAUUACGCGUG | -0.934 ± 0.074 | -0.462 ± 0.082 |
| UGCGAGCAAUAUUACGCCAG | -4.1 ± 0.42 |  |
| ACUGAGCAAUAUUACGAUAC | -1.07 ± 0.29 | -1.96 ± 0.33 |
| UCUUAGCAAUAUUACGGAGA |  | -2.76 ± 0.38 |
| GUCGAGCAAUAUUACGGCAA | -3.13 ± 0.31 | -1.76 ± 0.29 |
| ACUCAGCAAUAUUACGCAAU | -1.37 ± 0.078 | -0.643 ± 0.093 |
| CCCCAGCAAUAUUACGGCAG | -3.92 ± 0.16 | -2.22 ± 0.15 |
| UUUAAGCAAUAUUACGCAAU | -2.5 ± 0.24 | -1.55 ± 0.23 |
| UUGCAGCAAUAUUACGGGAA | -1.51 ± 0.12 | 0.101 ± 0.11 |
| GUUGAGCAAUAUUACGCCGC | -3.06 ± 0.44 | -2.15 ± 0.5 |
| UCUAAGCAAUAUUACGCUUA | -2.29 ± 0.21 | -1.75 ± 0.29 |
| AGUAAGCAAUAUUACGGUGA | -2.73 ± 0.17 | -1.21 ± 0.14 |
| UCUUAGCAAUAUUACGAUAU |  | -1.78 ± 0.38 |
| GAGAAGCAAUAUUACGAGCA | -1.79 ± 0.15 | -0.727 ± 0.14 |
| CACCAGCAAUAUUACGACGU | -2.58 ± 0.096 | -1.11 ± 0.099 |

| Sequence | self-splicing fitness (ln) (30 °C) | self-splicing fitness (ln) (37 °C) |
| --- | --- | --- |
| UACUAGCAAUAUUACGCGAA | -1.97 ± 0.2 | -1.18 ± 0.14 |
| GGCGAGCAAUAUUACGAUGU | -3.69 ± 0.32 | -1.53 ± 0.2 |
| CGCAAGCAAUAUUACGUUGA | -2.6 ± 0.13 | -2.02 ± 0.15 |
| AGACAGCAAUAUUACGAGAG | -4.6 ± 0.34 | -2.12 ± 0.17 |
| AGAUAGCAAUAUUACGCAUC | -1.84 ± 0.3 | -1.91 ± 0.36 |
| AGUCAGCAAUAUUACGCCCC | 0.28 ± 0.17 | 0.672 ± 0.33 |
| UAAGAGCAAUAUUACGCAUC | -4.23 ± 0.3 | -3.46 ± 0.37 |
| UUCCAGCAAUAUUACGAGUU | -3.21 ± 0.13 | -1.6 ± 0.092 |
| UCGGAGCAAUAUUACGGGAG |  | -2.24 ± 0.44 |
| AGUCAGCAAUAUUACGUGCU | -2.18 ± 0.12 | -1.43 ± 0.12 |
| GGCGAGCAAUAUUACGUCCU | -2.41 ± 0.1 | -1.28 ± 0.09 |
| UGCUAGCAAUAUUACGGAUG | -0.534 ± 0.086 | -0.268 ± 0.1 |
| CGACAGCAAUAUUACGAUUA | -1.99 ± 0.12 | -0.873 ± 0.1 |
| ACGAAGCAAUAUUACGACUC | -1.12 ± 0.072 | -0.0297 ± 0.088 |
| CAUGAGCAAUAUUACGAGUG | -2.67 ± 0.13 | -3 ± 0.21 |
| CCGGAGCAAUAUUACGUCCA | -1.39 ± 0.21 | -1.66 ± 0.32 |
| CGUGAGCAAUAUUACGAAGG | -2.37 ± 0.14 | -1.42 ± 0.14 |
| CCAUAGCAAUAUUACGAGGC | -3.03 ± 0.15 | -3.27 ± 0.21 |
| CUAUAGCAAUAUUACGUGCA | -3.24 ± 0.18 | -2.37 ± 0.19 |
| CUGGAGCAAUAUUACGGGUG | -1.61 ± 0.079 | -0.251 ± 0.078 |
| AAGUAGCAAUAUUACGUCAC | -3.26 ± 0.15 | -3.73 ± 0.22 |
| GGACAGCAAUAUUACGAAGG | -3.1 ± 0.24 | -2.38 ± 0.39 |
| AAAGAGCAAUAUUACGCGAC | -2.55 ± 0.2 | -0.998 ± 0.14 |
| GGUCAGCAAUAUUACGUCAA | -0.511 ± 0.071 | 0.0808 ± 0.082 |
| CUGGAGCAAUAUUACGGUCA | -2.54 ± 0.47 |  |
| UUCAAGCAAUAUUACGAUUU | -3.24 ± 0.21 | -1.12 ± 0.17 |
| AAAUAGCAAUAUUACGGAAA | -2.87 ± 0.26 | -1.53 ± 0.17 |
